Data on ten molecules can be found in US20260250391A1 (NEW YORK UNIVERSITY, published 2026).

In test [1] the target is T1, Endogenous human ICAM-2 on the surface of Primary Umbilical Vein Endothelial Cells (HUVEC) (human, UniProt P13598 25-275).
T1 construct: whole, on cells; also called cell surface ICAM-2; endogenous ICAM-2
T1 sequence (looked up): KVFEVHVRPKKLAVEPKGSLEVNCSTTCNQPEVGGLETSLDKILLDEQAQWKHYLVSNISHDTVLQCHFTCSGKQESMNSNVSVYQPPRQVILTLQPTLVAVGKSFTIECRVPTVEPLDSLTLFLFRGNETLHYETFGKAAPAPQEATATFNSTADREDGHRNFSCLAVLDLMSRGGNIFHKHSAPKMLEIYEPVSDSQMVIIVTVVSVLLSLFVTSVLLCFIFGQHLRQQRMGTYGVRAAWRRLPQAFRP
Kind of test: Flow cytometry (MFI) of negative control monobody bound to streptavidin DyLight 650 on HUVEC; concentration as monomer [panel B]. The protocol:
Whether Mb_ICAM2_S40 detected endogenous ICAM-2 molecules expressed on the surface of human cells was tested. […] The expression of ICAM-2 in HUVEC but not in Expi293 was confirmed using a commercially available anti-hICAM-2 antibody (FIG. 2D).

Test [2] concerns the target T2, Human ICAM-2 extracellular region (UniProt ID P13598; residues 25-223), C-terminally fused to His6 and … (human, UniProt P13598 25-223, biotinylated with BirA (Avi-tag) when used as selection antigen).
T2 construct: range 25-223; Expressed from EXPI293 cells; also called hICAM-2; not shown: C-terminal His6 and Avi-tags
T2 sequence (looked up): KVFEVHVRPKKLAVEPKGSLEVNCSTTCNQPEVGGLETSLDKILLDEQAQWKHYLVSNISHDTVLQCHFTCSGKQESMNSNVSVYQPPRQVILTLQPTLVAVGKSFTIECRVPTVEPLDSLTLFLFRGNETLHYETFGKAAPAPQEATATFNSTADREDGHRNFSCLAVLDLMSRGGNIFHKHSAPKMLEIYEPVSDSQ
Kind of test: BLI (Octet): biotinylated monobody on streptavidin tips, human ICAM-2 in solution; global 1:1 fit without the highest concentration. The protocol: (§1) The four monobody samples identified in Example 1 were produced as purified proteins with N-terminal tags containing His6 and Avi-tag, followed by enzymatic biotinylation using the BirA enzyme. The proteins were immobilized on streptavidin-coated biolayer interferometry (BLI) tips using an Octet instrument (Sartorius) and their interaction with human ICAM-2 was monitored with the instrument (FIG. 1).
FIG. 1 depicts BLI sensorgrams. The global fitting of the 1:1 binding model was performed on the data after excluding the highest concentration sensorgrams, because the association rates in the highest concentration data are too high for accurate fitting. The KD values from the global fitting are shown.
(Biolayer interferometry detects binding as a change in optical thickness at a sensor tip.)

Test [3] deals with T3, Pig ICAM-2 extracellular region (UniProt ID Q6VY03; residues 24-250), C-terminally fused to His6 and Avi-tags (pig, UniProt Q6VY03 24-250, Possibly biotinylated on the Avi-tag, as for human ICAM-2 in Example 1; this is not stated for pig. The tag is not included in the letters.).
T3 construct: also called pICAM-2
T3 sequence: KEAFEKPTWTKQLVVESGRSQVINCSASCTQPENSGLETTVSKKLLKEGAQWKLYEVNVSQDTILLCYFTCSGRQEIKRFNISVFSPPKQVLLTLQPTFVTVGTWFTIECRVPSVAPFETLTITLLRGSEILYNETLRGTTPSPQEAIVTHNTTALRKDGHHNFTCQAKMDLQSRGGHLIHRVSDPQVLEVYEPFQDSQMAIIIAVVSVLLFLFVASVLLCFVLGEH
Kind of test: BLI (Octet) of the monobody with pig ICAM-2.
From the text: as §1
Biolayer interferometry (BLI) for five of the monobodies (Mb_pICAM2_L1, Mb_pICAM2_L6, Mb_pICAM2_L11, Mb_pICAM2_L14, and Mb_pICAM2_L22) was carried out using the procedures and equipment described above (FIG. 5).

B1: Negative control monobody (SEQ ID NO: 34) (designed binder)
chain: VSSVPTKLEVVAATPTSLLISWDASSSSVSYYRITYGETGGNSPVQEFTVPGSKSTATISGLKPGVDYTITVYASSSSSSSSSSSKPISINYRT
notes: Tested conjugated to streptavidin DyLight 650; The tags and biotinylation of this control are not described
As for B1, in test [1], the binding result is on record as “no binding (tested: 200 nM)”.

B2: Mb_ICAM2_S38 (designed binder)
chain: VSSVPTKLEVVAATPTSLLISWDAPAVTVLYYFITYGETGPASYGAQEFAVPGSKSTATISGLKPGVDYTITVYAISNKWKYSPISINYRT
modifications: biotin on the Avi-tag (enzymatic biotinylation with BirA) in the BLI assay
notes: Monobody (FN3 domain from human 10FN3); Purified form carries N-terminal His6 and Avi tags; not shown: N-terminal tags containing His6 and Avi-tag
The Kd is the equilibrium constant for the complex coming apart. A high value points to lower affinity. For the molecule B2, in test [2], the dissociation constant (Kd) came out at 26 nM.

B3: Mb_ICAM2_S40 (designed binder)
chain: VSSVPTKLEVVAATPTSLLISWDAPAVTVLYYFITYGETGGNSPVQEFAVPGSKSTATISGLKPGVDYTITVYALSSKWRYSPISINYRT
modifications: biotin on the Avi-tag (enzymatic biotinylation with BirA) in the BLI and flow cytometry assays
notes: as for B2
Take B3: the “apparent Kd (pooled screen)” value in test [2] was 14 nM.

B4: Mb_ICAM2_S32 (designed binder)
chain: VSSVPTKLEVVAATPTSLLISWDAPAVTVLYYFITYGETGGNSPVQEFAVPGSKSTATISGLKPGVDYTITVYAINQYWKYSPISINYRT
modifications: biotin on the Avi-tag (enzymatic biotinylation with BirA) in the BLI assay
notes: as for B2
Take B4: the Kd in test [2] stood at 5.9 nM.

B5: Mb_ICAM2_S36 (designed binder)
chain: VSSVPTKLEVVAATPTSLLISWDAPAVTVLYYFITYGETGHGSAYQEFAVPGSKSTATISGLKPGVDYTITVYALWYKGITSPISINYRT
modifications: biotin on the Avi-tag (enzymatic biotinylation with BirA) in the BLI assay
notes: as for B2
In test [2], B5 registered a Kd of 4.5 nM.

B6: Mb_pICAM2_L1 (designed binder)
chain: VSSVPTKLEVVAATPTSLLISWDAGYWSSVAYYRITYGETGGNSPVQEFTVPGSSSTATISGLKPGVDYTITVYAMTSGYSWYSPISINYRT
notes: Identified by yeast display
Take B6: the equilibrium dissociation constant (Kd) in test [3] worked out at 19.3 nM.

B7: Mb_pICAM2_L11 (designed binder)
chain: VSSVPTKLEVVAATPTSLLISWDAGYWSSVAYYRITYGETGGNSPVQEFTVPSSSSTATISGLKPGVDYTITVYAMTSGYSWYSPISINYRT
notes: Identified by yeast display
Take B7: in test [3], the affinity, expressed as Kd, was 12.1 nM.

B8: Mb_pICAM2_L14 (designed binder)
chain: VSSVPTKLEVVAATPTSLLISWDAGYWSSVSYYRITYGETGGNSPVQEFTVPGSSYTATISGLKPGVDYTITVYAQTSYYSWYSPISINYRT
notes: Identified by yeast display
Consider B8, for which the Kd in test [3] worked out at 11.8 nM.

B9: Mb_pICAM2_L6 (designed binder)
chain: VSSVPTKLEVVAATPTSLLISWDAGYWSSVAYYRITYGETGGNSPVQEFTVPSSSSTATISGLKPGVDYTITVYAQTSMYSWYSPISINYRT
notes: Identified by yeast display
As for B9, the Kd in test [3] turned out to be 14 nM.

B10: Mb_pICAM2_L22 (designed binder)
chain: VSSVPTKLEVVAATPTSLLISWDAGYWSSVAYYRITYGETGGNSPVQEFTVPGSSYTATISGLKPGVDYTITVYAKTSDYSWYSPISINYRT
notes: Identified by yeast display
In test [3], B10 showed a Kd of 16.8 nM.
